# Experimental data published in article PMC5223167.
# T1: PPE2 (Mycobacterium tuberculosis (BAC-Rv329 …, UniProt P9WI47))
# T1 sequence: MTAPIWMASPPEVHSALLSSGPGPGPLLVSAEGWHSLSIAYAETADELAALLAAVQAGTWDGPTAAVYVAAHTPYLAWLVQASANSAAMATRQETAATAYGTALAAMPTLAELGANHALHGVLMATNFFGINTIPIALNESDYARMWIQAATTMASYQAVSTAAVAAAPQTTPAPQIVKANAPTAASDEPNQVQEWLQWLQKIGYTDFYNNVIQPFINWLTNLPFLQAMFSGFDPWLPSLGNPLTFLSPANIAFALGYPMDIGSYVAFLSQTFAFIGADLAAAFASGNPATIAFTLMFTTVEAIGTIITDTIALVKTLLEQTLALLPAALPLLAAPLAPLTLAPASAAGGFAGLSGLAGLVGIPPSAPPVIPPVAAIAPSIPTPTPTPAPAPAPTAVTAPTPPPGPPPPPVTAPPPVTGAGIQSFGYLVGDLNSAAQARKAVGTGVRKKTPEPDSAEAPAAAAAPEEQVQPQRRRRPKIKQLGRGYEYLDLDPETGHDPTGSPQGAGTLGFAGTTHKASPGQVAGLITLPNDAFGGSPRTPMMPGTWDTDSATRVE
# B1: IRF-1 consensus (dsDNA)
# DNA 1: CACTGTCAATATTTCACTTTCATAATG
# DNA 2: CATTATGAAAGTGAAATATTGACAGTG
# B2: NF-kB consensus (dsDNA)
# DNA 1: AGTTGAGGGGACTTTCCCAGGC
# DNA 2: GCCTGGGAAAGTCCCCTCAACT
# B3: GATA consensus (dsDNA)
# DNA 1: CACTTGATAACAGAAAGTGATAACTCT
# DNA 2: AGAGTTATCACTTTCTGTTATCAAGTG
# B4: inos proximal GATA-1 element (overlaps TATA box) (dsDNA)
# DNA 1: GGGGTATAAATACCTGATGGCTGCTGCCAG
# DNA 2: CTGGCAGCAGCCATCAGGTATTTATACCCC
# Molecular target: T1, PPE2
# Test: EMSA; 20 mM HEPES (pH not stated), 0.5 mM DTT, 0.5 mM EDTA, 5% glycerol, room temperature, 30 min; […]
# Settings: protein: recombinant; tags: N-terminal His (pRSET A); label: 32P 5' end; blunt
row,Binder,binding result
1,B1,no binding
2,B2,no binding
3,B3,binds
4,B4,binds
